Earlier results, collected in publication PMC2846645.
Read-outs that look alike come from different tables or passages of the source.

Assays:
Experiment in all cases: surface plasmon resonance
[1] = molecular target: GABAA receptor beta3 subunit 400-412 (UniProt P28472)
[2] = molecular target: GABAA receptor gamma2 subunit Y365/Y367 motif (UniProt P18507)
[3] = molecular target: GABAA receptor beta3 subunit 400-412 (UniProt P28472); remark: listed apart in the source

Kd [1]: 300 nM
Kd [2]: 40 nM
Kd [3]: 1900 nM
Substance: AP2 mu2 (from UniProt Q96CW1)
